Assay results as given in PMC11210195 (Frontiers in Immunology, 2024).
Each block holds one binder with its values, some of them ahead of it.

Tests used:
cytokine-Fc Fusion Y436A [1] = biological target: cytokine-Fc Fusion Y436A (human); assay: SPR; cytokine-Fc Fusion constructs captured via anti-PGLALA F(ab')2 fragment (35-40 RU); PRYSPRY injected, two-fold series; 25°C, HBS-EP+ pH 7.4; 1:1 fit; details: both partners purified
cytokine-Fc Fusion Y436A [2] = biological target: cytokine-Fc Fusion Y436A (human); assay: SPR; cytokine-Fc Fusion constructs captured via anti-PGLALA F(ab')2 fragment at low density; TRIM21-CC-PS injected; 25°C, HBS-EP+; apparent (avidity) constants; details: both partners purified
[3] = biological target: the molecule itself; assay: SEC-MALS; TRIM21-CC-PS alone, 1 mg/mL, 50 µg injected, Superdex200 Increase 10/300 GL, PBS pH 7.4

- fold change of off rate against WT (cytokine-Fc Fusion Y436A [1]): 23 fold
- fold change of on rate against WT (cytokine-Fc Fusion Y436A [1]): 8 fold
- fold decrease of affinity against mAb1 Fc WT (cytokine-Fc Fusion Y436A [1]): 180 fold
- t1/2 of dissociation (cytokine-Fc Fusion Y436A [1]): 0.3 s
B1: TRIM21 PRYSPRY domain (domain or fragment, human, UniProt P19474-1 277-475, looked up)
chain: GLKKMLRTCAVHITLDPDTANPWLILSEDRRQVRLGDTQQSIPGNEERFDSYPMVLGAQHFHSGKHYWEVDVTGKEAWDLGVCRDSVRRKGHFLLSSKSGFWTIWLWNKQKYEAGTYPQTPLHLQVPPCQVGIFLDYEAGMVSFYNITDHGSLIYSFSECAFTGPLRPFFSPGFNDGGKNTAPLTLCPLNIGSQGSTDY
modifications: biotinylated where it was captured via monovalent streptavidin
notes: human TRIM21 (Ro52, RNF81), PRYSPRY domain, amino acids 277 to 475 of isoform 1; also called PS; TRIM21 PRYSPRY variant; source: E. coli BL21 DE3, purified (Ni-NTA, Superdex S-200 gel filtration) by Proteros Biostructures; not shown: His-Avi-Tag (via a (4GS)1 linker), C-terminal, kept

- avidity enhancement (K_(D,AFFINITY)/K_(D,AVIDITY)) (cytokine-Fc Fusion Y436A [2]): 14 fold
- fold weaker against the WT avidity (cytokine-Fc Fusion Y436A [2]): 766 fold
B2: TRIM21-coiled-coil-PRYSPRY (TRIM21-CC-PS) (domain or fragment, human, UniProt P19474-1 128-475, looked up)
chain: LEEAAQEYQEKLQVALGELRRKQELAEKLEVEIAIKRADWKKTVETQKSRIHAEFVQQKNFLVEEEQRQLQELEKDEREQLRILGEKEAKLAQQSQALQELISELDRRCHSSALELLQEVIIVLERSESWNLKDLDITSPELRSVCHVPGLKKMLRTCAVHITLDPDTANPWLILSEDRRQVRLGDTQQSIPGNEERFDSYPMVLGAQHFHSGKHYWEVDVTGKEAWDLGVCRDSVRRKGHFLLSSKSGFWTIWLWNKQKYEAGTYPQTPLHLQVPPCQVGIFLDYEAGMVSFYNITDHGSLIYSFSECAFTGPLRPFFSPGFNDGGKNTAPLTLCPLNIGSQGSTDY
modifications: biotinylated where it was captured via monovalent streptavidin
notes: human TRIM21 (Ro52, RNF81), coiled-coil and PRYSPRY domains, amino acids 128 to 475 of isoform 1; also called PRYSPRY-coiled-coil variant; source: E. coli BL21 DE3, purified (Ni-NTA, Superdex S-200 gel filtration) by Proteros Biostructures; not shown: His-Avi-Tag (via a (4GS)1 linker), C-terminal, kept
- stoichiometry N [3]: 2
